Experimental data: patent publication US20060275290A1

Biological target: p75 neurotrophin receptor (p75^NTR) on rat embryonic (E15) spinal cord motor neurons (rat) (UniProt P07174)
Test: cell-based or functional assay

p75 neurotrophin receptor (p75^NTR) on rat embryonic (E15) spinal cord motor neurons (rat), sequence (P07174 30-425): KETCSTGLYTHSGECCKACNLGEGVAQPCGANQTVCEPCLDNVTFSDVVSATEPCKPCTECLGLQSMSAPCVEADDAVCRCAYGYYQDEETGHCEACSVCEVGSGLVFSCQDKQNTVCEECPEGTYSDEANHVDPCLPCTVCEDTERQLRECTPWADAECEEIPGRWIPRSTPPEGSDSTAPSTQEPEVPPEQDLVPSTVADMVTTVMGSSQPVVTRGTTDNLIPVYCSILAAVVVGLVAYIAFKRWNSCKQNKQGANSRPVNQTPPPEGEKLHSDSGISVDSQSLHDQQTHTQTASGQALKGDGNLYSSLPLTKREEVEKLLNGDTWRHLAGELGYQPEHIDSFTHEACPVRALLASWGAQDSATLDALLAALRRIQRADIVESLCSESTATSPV

share of motor neurons vulnerable to NGF in culture: 40%
Substance: mouse NGF (2.5S), purified, from Harlan (from UniProt P01139 122-241) (ligand)
